Experimental data from paper PMC3267324 (Molecular Cell, 2011).

T1: GST-tagged full-length PARI (human, UniProt Q9NWS1 1-579)
T1 sequence (looked up): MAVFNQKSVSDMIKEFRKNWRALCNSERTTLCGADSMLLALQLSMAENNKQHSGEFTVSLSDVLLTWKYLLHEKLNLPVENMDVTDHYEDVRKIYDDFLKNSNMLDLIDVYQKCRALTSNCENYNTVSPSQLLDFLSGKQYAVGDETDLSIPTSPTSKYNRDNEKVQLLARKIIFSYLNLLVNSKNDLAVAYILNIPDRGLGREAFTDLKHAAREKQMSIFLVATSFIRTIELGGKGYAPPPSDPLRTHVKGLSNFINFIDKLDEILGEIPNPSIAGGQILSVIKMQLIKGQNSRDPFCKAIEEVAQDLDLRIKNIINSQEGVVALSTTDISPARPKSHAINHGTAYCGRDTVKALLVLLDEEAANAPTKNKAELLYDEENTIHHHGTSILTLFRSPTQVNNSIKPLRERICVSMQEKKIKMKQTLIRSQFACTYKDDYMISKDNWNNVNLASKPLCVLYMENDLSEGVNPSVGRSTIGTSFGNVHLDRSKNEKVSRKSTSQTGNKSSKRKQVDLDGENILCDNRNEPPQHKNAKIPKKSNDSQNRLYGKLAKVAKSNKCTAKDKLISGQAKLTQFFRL

T2: Recombinant Flag-tagged PARI purified from insect cells (human, UniProt Q9NWS1 1-579)
T2 sequence (looked up): T1 sequence (looked up)

B1: Recombinant human RAD51 expressed and purified from bacteria (natural protein, UniProt Q06609 1-339, looked up)
chain: MAMQMQLEANADTSVEEESFGPQPISRLEQCGINANDVKKLEEAGFHTVEAVAYAPKKELINIKGISEAKADKILAEAAKLVPMGFTTATEFHQRRSEIIQITTGSKELDKLLQGGIETGSITEMFGEFRTGKTQICHTLAVTCQLPIDRGGGEGKAMYIDTEGTFRPERLLAVAERYGLSGSDVLDNVAYARAFNTDHQTQLLYQASAMMVESRYALLIVDSATALYRTDYSGRGELSARQMHLARFLRMLLRLADEFGVAVVITNQVVAQVDGAAMFAADPKKPIGGNIIAHASTTRLYLRKGRGETRICKIYDSPCLPEAEAMFAINADGVGDAKD
B2: GST-tagged human RAD51 (natural protein, UniProt Q06609 1-339, looked up)
chain: B1 chain

Legend:
[1] = target: T1, GST-tagged full-length PARI; test: pull-down
[2] = target: T2, Recombinant Flag-tagged PARI purified …; test: pull-down

Binder	binding result [1]	binding result [2]
B1	binds	
B2		binds
